Target: T1, KDR (full length, on cells) (human, UniProt P35968 20-1356)
T1 construct: whole, on cells; also called VEGFR2; kinase domain receptor
Assay: radioligand binding on HUVEC; 125I-KDR (Ig4-7) displaced by unlabeled KDR (Ig4-7)
Description: ¹²⁵I-KDR (Ig4-7) (100,000 cpm=<1 ng) was incubated with HUVEC.
Total binding of KDR (Ig4-7) was also compared between HUVEC and two human breast cancer cell lines that were reported to have KDR expression (T47-D and MCF-7 cell lines) (FIG. 7). Specific binding of KDR (Ig4-7) was approximately 88%.

T1 sequence (P35968 20-1356): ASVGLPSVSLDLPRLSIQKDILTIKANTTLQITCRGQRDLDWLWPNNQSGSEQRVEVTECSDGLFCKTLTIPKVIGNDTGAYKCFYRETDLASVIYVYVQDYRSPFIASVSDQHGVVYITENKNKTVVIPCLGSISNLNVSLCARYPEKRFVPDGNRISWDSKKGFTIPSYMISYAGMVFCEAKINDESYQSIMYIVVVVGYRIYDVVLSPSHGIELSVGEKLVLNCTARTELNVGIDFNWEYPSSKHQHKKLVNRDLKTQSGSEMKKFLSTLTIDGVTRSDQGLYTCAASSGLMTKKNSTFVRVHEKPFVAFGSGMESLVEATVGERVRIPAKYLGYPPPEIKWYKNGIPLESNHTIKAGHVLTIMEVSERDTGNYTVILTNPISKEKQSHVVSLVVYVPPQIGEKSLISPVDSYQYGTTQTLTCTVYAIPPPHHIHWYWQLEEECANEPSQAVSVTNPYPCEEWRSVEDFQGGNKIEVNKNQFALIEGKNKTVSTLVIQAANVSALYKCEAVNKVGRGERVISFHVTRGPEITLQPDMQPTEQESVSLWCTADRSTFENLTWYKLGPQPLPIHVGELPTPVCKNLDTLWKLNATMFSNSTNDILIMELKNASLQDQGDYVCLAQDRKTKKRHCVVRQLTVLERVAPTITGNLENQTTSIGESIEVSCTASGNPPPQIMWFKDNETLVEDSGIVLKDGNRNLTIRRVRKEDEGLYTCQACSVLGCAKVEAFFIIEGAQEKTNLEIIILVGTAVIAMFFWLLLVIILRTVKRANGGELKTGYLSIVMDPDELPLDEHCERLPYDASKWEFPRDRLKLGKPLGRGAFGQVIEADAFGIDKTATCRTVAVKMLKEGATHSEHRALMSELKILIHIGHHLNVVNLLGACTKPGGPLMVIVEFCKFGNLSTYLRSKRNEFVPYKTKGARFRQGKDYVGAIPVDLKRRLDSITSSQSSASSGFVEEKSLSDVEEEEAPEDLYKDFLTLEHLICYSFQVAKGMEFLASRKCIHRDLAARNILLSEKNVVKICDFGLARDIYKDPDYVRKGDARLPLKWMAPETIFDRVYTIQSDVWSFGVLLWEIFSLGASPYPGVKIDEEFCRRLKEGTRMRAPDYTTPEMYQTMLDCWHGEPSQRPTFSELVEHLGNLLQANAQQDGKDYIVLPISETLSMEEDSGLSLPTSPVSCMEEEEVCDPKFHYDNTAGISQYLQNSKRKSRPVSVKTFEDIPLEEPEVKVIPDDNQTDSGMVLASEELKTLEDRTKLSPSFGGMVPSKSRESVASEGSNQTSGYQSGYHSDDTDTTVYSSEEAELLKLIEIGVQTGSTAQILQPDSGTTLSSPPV

EC50: ~10 µg/mL
B1: KDR (Ig4-7) (receptor)
chain: HMFVAFGSGMESLVEATVGERVRIPAKYLGYPPPEIKWYKNGIPLESNHTIKAGHVLTIMEVSERDTGNYTVILTNPISKEKQSHVVSLVVYVPPQIGEKSLISPVDSYQYGTTQTLTCTVYAIPPPHHIHWYWQLEEECANEPSQAVSVTNPYPCEEWRSVEDFQGGNKIEVNKNQFALIEGKNKTVSTLVIQAANVSALYKCEAVNKVGRGERVISFHVTRGPEITLQPDMQPTEQESVSLWCTADRSTFENLTWYKLGPQPLPIHVGELPTPVCKNLDTLWKLNATMFSNSTNDILIMELKNASLQDQGDYVCLAQDRKTKKRHCVVRQLTVLERVAPTITGNLENQTTSIGESIEVSCTASGNPPPQIMWFKDNETLVEDSGIVLKDGNRNLTIRRVRKEDEGLYTCQACSVLGCAKVEAFFIIEGAQEK
modifications: 125I-labeled as tracer (labelled residues not stated); unlabeled as competitor
notes: also called 125I-KDR (Ig4-7); 125I-labeled KDR (Ig4-7)
